Experiment: soluble on expression in E. coli; label from the status in PepcDB or PDB records
For “MGSDKIHHHHHHMIFFNKDEQLENIGNGILDATWAAFPTLARNQIALTWVVYDPPVRVNTGGALTPNAFWDHPVRGFTYRGVERIYPASVVKLFYLVAVNEWLEKGMSQTSKELERALRDMIVDSSNDATSLVVDILSGTTSGPELPTGPFETWKYQRNIVNRYYQSLGWEEMETINVCQKTWGDGPYGRERAFAGELLENRNMLTTNAIARLLHSIVGGVAVSSARSQAMMALLKRPLNDLPTDTEENQVTGFLGGGLPQNAQIWSKAGWTSQVRHDAAYIELPEQRPYLLVVFTEGKAQAKSQAILPFVSQQVADAISSL”, the “soluble on expression in E. coli” value was “not soluble”. For “MSLCCISFRVGTGPCVTSGADRLTKGPLRKSAPVSQPEANPKSRSFSGNFLNHTFRRENPMSEITSLVTAEAVKDVLRSEEVRSALKQKLRHNLEARLDAEVDAILDELLGVQAEPPTEAGDTTAESGEVQPESPVADATEPQPESVMMLEGHHHHHH”, the “soluble on expression in E. coli” value was “soluble”. For “MGSDKIHHHHHHMKESMSITSSTYASALLTLPWGTPLEQWPDNLIAALPRGISRHIVRFVGINRGIVAVKEIGARTAHHEYKMLRELQRLGAPSVRPVAVITGRHPAEEDYGELTAALVTEHLEFSLPYREIFSRHLTVVESEKLIRALSVLLVRMHLLNFYWGDVSLSNTLFRRDAETYSAYLVDAETGEFQPNLSESRRLYDVDIARVNIIGELMDLQAGECLDKSIDVIALGGLVESSYLELWTELTAEESVDASEYWRLSERIDRLNQLGFDVGELKVTKDDSRQVVRIRPVVVDPGHYRAELLSLTGLSVEEHQAQRLLGSIQAYQAVECGPHVGLTQAAHLWMTNEYEPTIAAVPVEMLDKLEPAQIFHEIVDHRWFLAQERGGAVTLPEATASYLESVLPARRDEARLLSTNPSDEDLS”, the “soluble on expression in E. coli” value was “not soluble”. With “MMEIRLTELKDLPLVMEIYDYARAFMRANGNATQWIDGYPSESFIRQEIEDGHSFVCTDEQGEILGTFCFILGEDPTYLNIYEGAWLNDEPYGVIHRMATSGKRKGVSEACLNWCFEHFENIRVDTHRDNKVMQHILAKYGFQRCGIIYVKNGTERIAYQRIL” the “soluble on expression in E. coli” value was “not soluble”. With “MNNPDLPYRQALECLSQKQYNFTEVRRLLTEAFSAGHPAAAFELAKHLMDADSPYQDREQGMEMLRIAAEQGHPYARYNLAYIQELEGAPPETLIPLYRPLAEEGLPEAQVRLMYLLYASRHFEEALEWAKTSAKNNNPHGQYLLAQYCRYGTPPDFETAHLLYRKSAAQGLPEAHWQLGLQYRFGQGTKVDTAQAVNHLRAAAQQGYIPAYTPLAELILPTAPDEAVHWFQQAAQENDPDAHAALADIYLQGKHLERNHKLALHHAEAAAAERHPEGLRILGDICRYGLGIAPDTEKARHYYRQAAEAGSLSAYQKLISDSALNHPDQYGGIKDSAIRRQRAERLYQKAQALHYGLQCAPEYAAALKLYTEAAELGHSKAQTNLGSMYYFGQGMTADYNEARKWFEKAAAKKDSMAFYNLACIHYSGHGVEPDKEKACRYLQEAINNGYGQKSVLQELLQQWQNAV” the “soluble on expression in E. coli” value was “not soluble”. With “MDICERSDEVVRYDSAQIRNGELELSSTVDDALFTDGLVATSGMLNADCRLVFGLVMFGHPLDEPMLCFTANGFELTVSIPNEDGETSSTWVIMARER” the “soluble on expression in E. coli” value was “not soluble”. In the case of “SQYKNISEKIVHIIQQEFDTDLTLESIAGRLHYNPNYLSSIFRKEMKISFSEYLSSYRHHIAKNWLTETTMSVKEISEKLKYKNPQNFIRSFKKLEGITPGKYRELKNHS”, the “soluble on expression in E. coli” value is reported as “soluble”. With “MSLDNKGDIWYDLISAVHKSIRGSDPDAALYWAARMISAGCDPLYIARRLLAIASEDVGNADPRGMQVALAAWDCFTRVGPAEGERAIAQAIVYLACAPKSNAVYTAWKQALSDAHNLPEFEVPPHLRNAPTRLMKDLGYGEEYRYAHDEPGAYAAGECYFPPEMSGTRYYQPTPRGLETKIAEKLAYLADLNAKSPQKEGHHHHHH” the “soluble on expression in E. coli” value was “soluble”. For “MGSDKIHHHHHHMMGKAALMDAIAGTNRGLLATEAQKQAILAAIANLEDFNPTPRPVEAGNLLDGNWRLLYTTSKALLNLDRLPFCKLGQIYQCIRVETTSVYNIAEIYGLPYLEGLVSVAAKFEPVSGRRVQVKFERSIIGLQRLIEYNSPVTFIQQIEAGKKFAGIDFAIKSDKQQGWLDITYIDNDLRIGRGNEGSVFILSKT”, the “soluble on expression in E. coli” value was “not soluble”. For “TKTTTQGAKSGVFDTVDEAVQAAVIAQNCYKEKSLEERRNVVKAIREALYPEIETIATRAVAETGMGNVTDKILKNTLAIEKTPGVEDLYTEVATGDNGMTLYELSPYGVIGAVAPSTNPTETLICNSIGMLAAGNAVFYSPHPGAKNISLWLIEKLNTIVRDSCGIDNLIVTVAKPSIQAAQEMMNHPKVPLLVITGGPGVVLQAMQSGKKVIGAGAGNPPSIVDETANIEKAAADIVDGASFDHNILCIAE”, the “soluble on expression in E. coli” value was “not soluble”. With “MGHHHHHHSHMPDNHKDPPDFNNLEMKLEERIELSREDQDIQSTSSSYPHCEALDHIVSMESTYDFHRQMAHKDLQKHRQEYEKASEKILELRKKLTDWNMDPKKRKWIEDDLDSLVRKQESALSRIRLAEKCTKRDLRNDPPPAYQPDDPLKDLRKNFEKKEKPTWNDVEKKKNGVFEFH” the “soluble on expression in E. coli” value was “not soluble”. With “MGSDKIHHHHHHMFEWVEKISFSEASPLTAQAQDNKFGFHRKRPEVMAHSHWHGHIEINYLFDCSADYLINGQEISVPEGRMIIFWASIPHQMTACHGDGEIVNIYIPLQAFLTWMLPGEFVSQLLHGEVMVSDSLYVCDRQLTQIWEADIASQEPLLASQVINEIRNRIRRMAIEHYSTFNLAHRSGHGVDKPVFGGLNHIQTMLRYIADHYDQKITIENVAMSTGLHKNYAMKLFNRVMKVSIKQYINQLRLQHAQALLIDTENPVLNIALEAGFGSVSRFYDIFQREFNMSPLEFRRRVG” the “soluble on expression in E. coli” value was “not soluble”. For “MSLSVTRENFDEWMVPVYVPAPFIPVRGEGSRLWDQQGKEYIDFAGGIAVNALGHAHPALREALNEQANRFWHIGNGYTNEPALRLAKKLIDATFAERVFFCNSGAEANEAALKLARKYAHDRVGNHKSGIVAFKNAFHGRTLFTVSAGGQPTYSQDFAPLPPDIRHAAYNDLNSASALIDDNTCAVIVEPVQGEGGVIPATKAFLQGLRELCDRHQALLIFDEVQTGVGRTGELYAYMHYGVTPDILTTAKALGGGFPIGAMLTTQDYASVMTPGTHGTTYGGNPLATAVAGKVLDIINTPEMQNGVRQRHDAFIERLNTLNVRFGMFSEIRGLGLLLGCVLQTEFAGKAKLIAQEAAKAGVMVLIAGGDVVRFAPALNVSDEEIATGLDRFALACERLQTGGVPCG”, the “soluble on expression in E. coli” value was “not soluble”. For “MGFMIEHWDFSTPMATQETTTAEHIQPNHWYHCERLHPDIRSWLEDNHVPRATVDHLLADESRPSFHPLDDDNFMLILRGINMNENASPEDMLSIRILYFQGALISTRKIPSRAIMEIRQALAEHKGPKSLASLLNQIIEGLNGKIDLYLDTIEETLNEFDVNDESTYNHIAAQKALISIKRFIRPQQYAIRDLIESESELVTSRPHQYRFAHNNITRINETIEFYLGEVALFQDEIKHNRDEKTNKNSYLFTLVATIFLPTSFLTGLL”, the “soluble on expression in E. coli” value was “not soluble”. For “MEDGPNEFRAWLAEIGPSWIDVFPREEDPTPEYILFGGRWNSSERDEGRRIIVNVACLLFPEESTSACQREIWTSSQYELGNLETQTTLSLRSSCPDGAKLVGGGCSTEAVGSYRYVQVIQSGFAQDDPDAWLCSWANTSDDEQTQAMAMAYCLHEEPLPAECGCCPTMAETITVKREDEPLRFGPNRLEVSCDEGQTLVLGNCTLDVDDITPFRDVTMFRSGFPPTEEHPDGDRSRWGCSWYNPTGMAPRAIATAVCLPAE”, the “soluble on expression in E. coli” value was “not soluble”. For “SDMGTSALSKKPWWTLPQNFHAPMVFHMEEDQEELIFGHGDTYLRCIEVHSHTLIQLESWFTATGQTRVTVGPHRARQWLLHMFCCVGSQDSYHHARGLEMLERVRSQPLTNDDLVTSISVPPYTGDLSLAPRISGTVCLSVPQPSPYQVIGCSGFHLSSLYP”, the “soluble on expression in E. coli” value was “soluble”. For “MGSDKIHHHHHHMAFAQLQIVSSLADAYSKDGADALILIGNFDSIDDSALAETIQQAQITDQRVGKQPLLLKADGVPGQRLVAAPTGPLNRDFDDVRQVFDAAHAAAKVAQDAGARHPVIALNNVNVNDERYQQAFLAAYLGFCQALYQPLEAREAHGEEAIEPTQNVILVGELDVEWAMAVEAGKRVARDLAGTEPERMAPPKFAEYCRQAFAHTSVKVTVIDDYQQLQHEYPLLAAVGRSSMAVERHRPCVIRLEYHGNNPERTVMFAGKGIVYDTGGADLKTGGHMAGMSRDKGGAAGVAGFLKTVSELQPEHLNVVAEIGAVRNSIGSDAFVADEIITGHSGKRVRIGNTDAEGRLIMADLLSHLREEAAKSDGEHELYTVATLTGHAALSKGPYSALVPNGHARRQNLAQALFNAGETYGDPTEISWSRREDFDFVKGRTLCDDLLSSNNGPSAATPRGHQFPMAFLTGVSGLDNHGIDSEHPISYIHIDIAGSGVEGGDWQHGKPTAAPVTCLAGHYLKK”, the “soluble on expression in E. coli” value was “not soluble”. For “MGHHHHHHSHMRSVSYVQRVALEFSGSLFPHAICLGDVDNDTLNELVVGDTSGKVSVYKNDDSRPWLTCSCQGMLTCVGVGDVCNKGKNLLVAVSAEGWFHLFDLTPAKVLDASGHHETLIGEEQRPVFKQHIPANTKVMLISDIDGDGCRELVVGYTDRVVRAFRWEELGEGPEHLTGQLVSLKKWMLEGHHDKPGITQGTGIAIVNK”, the “soluble on expression in E. coli” value was “not soluble”. For “MVIAYVDANLQTNRQTIYFDHDLNRNKYNTIQLKKLTMTQDSDSEYEIERIIDHVSFLEAYESFYGQNVKRFAAIFSEERFKRTKKPQLISNYFFLVKWLGYGNKEMTWEPESNIPDSVYLYEYKKLNNMVMNRMNLKVSLTFTSRRKGYTPPVILEELQERKPKPQFLNMSNMAITLNDNLNNGKFGIVPVPKYKKKFGQNVNYLKFGNEVYKMKNVSFKDSTNNDIDNRVQQHHHEDRSFLQSMIKHNNIVRMRDLFVSYNKLDETVNITSIYDWCHQNLRQQLNNEKVSWKKVCRDILNALSFIHPYGIHQGVSLDHIYYHKGGTYKLSHFNNFFFGKRIPAEKVKSDRVELAPRLYNLKFKLGRNSDIYALAIVLLQCHNKKFSFRVNPSSVMEIEEDIAKGMSAFENKDDRHFLKSLLRARLHVYHGSGHYRFTSSSLLHHPVLQEPTARSVECFYFHSMLASPMKEIIHYHANDKISDVLQRFISLYHTSQEAEDKKYIMMFTKDTSSCDSVVLLNSLENFERVVDIDLTIMKNTLLIAPIILPSPENENCQKFLIIYEQELGGCPIVIETPEVNAAKFAKQLKEYSVSHEYRNRRLGLFPKLPGGDQQENGGLPEFSHHVWQMQLESNDDTVIKNRFDIASEIEMPLSGEMLEWDDVAGIANYGEILRNNSDNTTSRRKRETCSSDELDEAHAKREKVD”, the “soluble on expression in E. coli” value was “not soluble”. For “MKKSSEVMHQACDACRKKKWKCSKTVPTCTNCLKYNLDCVYSPQVVRTPLTRAHLTEMENR”, the “soluble on expression in E. coli” value was “soluble”. For “MTGKILVIGSTGTIGTPLVKALVARGESVKAASRSGKPTNGAEGVRFDYTDHATFADAFDGVDRLFLMLAGGRLDTIDALTPVVEEAARRKVKIVFLSVLGVDADDSIPYRQIELKIIASGTPYVILRPNWFADNFHSYWKAGIEHGQIAVPGGEGKSSFIDVRDIADSAAAALTSDAFNGKAFNLTGPQAFGYAEAAALISQAIGKPVSYSAVSDDVFIGILTGAGVPQDYASFLASIFYPVREGWTAVVTGDAETLTGHAPRSLETYIADNLDRLKG”, the “soluble on expression in E. coli” value was “not soluble”.
